Measurements from PMC9482650, “Quantitative fragmentomics allow affinity mapping of interactomes” (Nature Communications, 2022).

T1: ARHGAP21, Q5T5U3
T1 sequence (Q5T5U3 45-169, limits assumed, looked up): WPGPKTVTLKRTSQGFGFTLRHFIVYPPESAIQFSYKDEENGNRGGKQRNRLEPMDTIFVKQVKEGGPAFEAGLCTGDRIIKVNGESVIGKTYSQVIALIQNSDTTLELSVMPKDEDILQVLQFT

T2: HTRA3, P83110
T2 sequence (P83110 354-453, limits assumed, looked up): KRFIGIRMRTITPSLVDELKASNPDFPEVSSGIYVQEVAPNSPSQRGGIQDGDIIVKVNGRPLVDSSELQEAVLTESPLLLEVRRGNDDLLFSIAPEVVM

T3: GRIP1_3, Q9Y3R0
T3 sequence (Q9Y3R0 247-346, limits assumed, looked up): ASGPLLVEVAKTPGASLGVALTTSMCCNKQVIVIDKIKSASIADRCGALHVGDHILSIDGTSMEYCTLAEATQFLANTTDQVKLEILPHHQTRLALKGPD

T4: NHERF3_3, Q5T2W1
T4 sequence (Q5T2W1 238-333, limits assumed, looked up): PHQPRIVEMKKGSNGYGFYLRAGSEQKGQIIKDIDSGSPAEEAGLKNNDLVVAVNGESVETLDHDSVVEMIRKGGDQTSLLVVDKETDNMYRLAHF

T5: APBA2_2, Q99767
T5 sequence (Q99767 654-744, limits assumed, looked up): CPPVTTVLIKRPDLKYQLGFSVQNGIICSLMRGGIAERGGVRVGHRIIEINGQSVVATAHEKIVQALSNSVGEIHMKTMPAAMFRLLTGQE

T6: FRMPD1, Q5SYB0
T6 sequence (Q5SYB0 52-145, limits assumed, looked up): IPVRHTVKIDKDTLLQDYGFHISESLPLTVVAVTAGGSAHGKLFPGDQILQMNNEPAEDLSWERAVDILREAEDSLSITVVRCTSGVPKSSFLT

T7: TJP3_3, O95049
T7 sequence (O95049 375-456, limits assumed, looked up): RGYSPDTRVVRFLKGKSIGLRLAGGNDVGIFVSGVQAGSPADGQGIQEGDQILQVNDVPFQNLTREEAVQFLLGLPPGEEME

T8: PDZD7_3, Q9H5P4
T8 sequence (Q9H5P4 857-944, limits assumed, looked up): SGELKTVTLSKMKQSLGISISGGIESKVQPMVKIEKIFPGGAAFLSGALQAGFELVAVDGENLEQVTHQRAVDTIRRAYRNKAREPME

T9: LRRC7, Q96NW7
T9 sequence (Q96NW7 1440-1537, limits assumed, looked up): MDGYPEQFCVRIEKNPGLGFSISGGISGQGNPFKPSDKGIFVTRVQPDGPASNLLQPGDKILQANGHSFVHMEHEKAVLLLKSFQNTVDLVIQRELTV

T10: APBA2_1, Q99767
T10 sequence (Q99767 563-664, limits assumed, looked up): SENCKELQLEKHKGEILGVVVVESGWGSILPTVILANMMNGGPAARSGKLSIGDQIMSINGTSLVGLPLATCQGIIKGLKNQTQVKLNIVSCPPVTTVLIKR

T11: PDZD2_2, O15018
T11 sequence (O15018 329-429, limits assumed, looked up): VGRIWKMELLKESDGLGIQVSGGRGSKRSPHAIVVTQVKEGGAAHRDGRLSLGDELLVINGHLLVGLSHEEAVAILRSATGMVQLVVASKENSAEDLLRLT

T12: LNX2_3, Q8N448
T12 sequence (Q8N448 463-564, limits assumed, looked up): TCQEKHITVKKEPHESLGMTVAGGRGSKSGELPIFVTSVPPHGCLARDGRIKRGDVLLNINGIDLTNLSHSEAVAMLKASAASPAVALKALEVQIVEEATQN

T13: NHERF3_4, Q5T2W1
T13 sequence (Q5T2W1 373-468, limits assumed, looked up): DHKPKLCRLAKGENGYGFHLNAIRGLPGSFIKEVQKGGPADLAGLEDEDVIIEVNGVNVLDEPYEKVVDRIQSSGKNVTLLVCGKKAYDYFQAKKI


target: T1, ARHGAP21, Q5T5U3; assay: holdup assay; parameters: key: below the threshold = too weak to quantify, mostly under pKd 3.1 to 4; details: plain residues with an end cap or a label only (N-terminal biotin on a linker: ado-ado)

| pKd | Binder |
| --- | --- |
| 4.01 | KIEDVEITLV [FCHSD2, O94868] |
| below the threshold | MQILSKPEFI [NPSR1, Q6W5P4] |

target: MAST1, Q9Y2H9; assay: holdup assay; parameters: key: below the threshold = too weak to quantify, mostly under pKd 3.1 to 4; details: plain residues with an end cap or a label only (N-terminal biotin on a linker: ado-ado)
Sequence (Q9Y2H9 962-1065): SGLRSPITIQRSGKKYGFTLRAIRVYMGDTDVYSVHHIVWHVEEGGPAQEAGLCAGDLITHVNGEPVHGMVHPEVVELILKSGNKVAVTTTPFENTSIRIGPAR

| pKd | Binder |
| --- | --- |
| 4.16 | KIEDVEITLV [FCHSD2, O94868] |
| 3.68 | MQILSKPEFI [NPSR1, Q6W5P4] |

target: T2, HTRA3, P83110; assay: holdup assay; parameters: key: below the threshold = too weak to quantify, mostly under pKd 3.1 to 4; details: plain residues with an end cap or a label only (N-terminal biotin on a linker: ado-ado)

| pKd | Binder |
| --- | --- |
| 3.71 | KIEDVEITLV [FCHSD2, O94868] |
| 4.61 | MQILSKPEFI [NPSR1, Q6W5P4] |

target: Inadl_3, Q8NI35; assay: holdup assay; parameters: key: below the threshold = too weak to quantify, mostly under pKd 3.1 to 4; details: plain residues with an end cap or a label only (N-terminal biotin on a linker: ado-ado)
Sequence (Q8NI35 359-469): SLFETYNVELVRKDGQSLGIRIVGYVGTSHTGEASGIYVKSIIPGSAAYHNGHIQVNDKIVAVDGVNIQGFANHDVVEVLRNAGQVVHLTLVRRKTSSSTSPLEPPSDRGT

| pKd | Binder |
| --- | --- |
| 4.43 | KIEDVEITLV [FCHSD2, O94868] |
| below the threshold | MQILSKPEFI [NPSR1, Q6W5P4] |

target: T3, GRIP1_3, Q9Y3R0; assay: holdup assay; parameters: key: below the threshold = too weak to quantify, mostly under pKd 3.1 to 4; details: plain residues with an end cap or a label only (N-terminal biotin on a linker: ado-ado)

| pKd | Binder |
| --- | --- |
| below the threshold | KIEDVEITLV [FCHSD2, O94868] |
| below the threshold | MQILSKPEFI [NPSR1, Q6W5P4] |

target: IL16_3, Q14005; assay: holdup assay; parameters: key: below the threshold = too weak to quantify, mostly under pKd 3.1 to 4; details: plain residues with an end cap or a label only (N-terminal biotin on a linker: ado-ado)
Sequence (Q14005 1107-1207): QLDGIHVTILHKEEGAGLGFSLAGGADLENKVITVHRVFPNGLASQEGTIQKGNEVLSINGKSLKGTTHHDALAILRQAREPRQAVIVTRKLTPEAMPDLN

| pKd | Binder |
| --- | --- |
| below the threshold | KIEDVEITLV [FCHSD2, O94868] |
| below the threshold | MQILSKPEFI [NPSR1, Q6W5P4] |

target: TJP1_3, Q07157; assay: holdup assay; parameters: key: below the threshold = too weak to quantify, mostly under pKd 3.1 to 4; details: plain residues with an end cap or a label only (N-terminal biotin on a linker: ado-ado)
Sequence (Q07157 416-512): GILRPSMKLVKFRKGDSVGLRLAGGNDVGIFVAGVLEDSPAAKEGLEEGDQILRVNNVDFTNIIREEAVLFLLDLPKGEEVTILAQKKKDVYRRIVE

| pKd | Binder |
| --- | --- |
| below the threshold | KIEDVEITLV [FCHSD2, O94868] |
| below the threshold | MQILSKPEFI [NPSR1, Q6W5P4] |

target: DLG1_1, Q12959; assay: holdup assay; parameters: key: below the threshold = too weak to quantify, mostly under pKd 3.1 to 4; details: plain residues with an end cap or a label only (N-terminal biotin on a linker: ado-ado)

| pKd | Binder |
| --- | --- |
| 3.79 | KIEDVEITLV [FCHSD2, O94868] |
| below the threshold | MQILSKPEFI [NPSR1, Q6W5P4] |

target: GRIP2_7, Q9C0E4; assay: holdup assay; parameters: key: below the threshold = too weak to quantify, mostly under pKd 3.1 to 4; details: plain residues with an end cap or a label only (N-terminal biotin on a linker: ado-ado)
Sequence (Q9C0E4 934-1023): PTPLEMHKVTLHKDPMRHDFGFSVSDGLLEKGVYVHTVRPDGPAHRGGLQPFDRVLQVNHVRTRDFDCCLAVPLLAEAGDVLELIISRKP

| pKd | Binder |
| --- | --- |
| below the threshold | KIEDVEITLV [FCHSD2, O94868] |
| 3.69 | MQILSKPEFI [NPSR1, Q6W5P4] |

target: T4, NHERF3_3, Q5T2W1; assay: holdup assay; parameters: key: below the threshold = too weak to quantify, mostly under pKd 3.1 to 4; details: plain residues with an end cap or a label only (N-terminal biotin on a linker: ado-ado)

| pKd | Binder |
| --- | --- |
| below the threshold | KIEDVEITLV [FCHSD2, O94868] |
| below the threshold | MQILSKPEFI [NPSR1, Q6W5P4] |

target: T5, APBA2_2, Q99767; assay: holdup assay; parameters: key: below the threshold = too weak to quantify, mostly under pKd 3.1 to 4; details: plain residues with an end cap or a label only (N-terminal biotin on a linker: ado-ado)

| pKd | Binder |
| --- | --- |
| 3.51 | KIEDVEITLV [FCHSD2, O94868] |
| below the threshold | MQILSKPEFI [NPSR1, Q6W5P4] |

target: GOPC, Q9HD26; assay: holdup assay; parameters: key: below the threshold = too weak to quantify, mostly under pKd 3.1 to 4; details: plain residues with an end cap or a label only (N-terminal biotin on a linker: ado-ado)

| pKd | Binder |
| --- | --- |
| 4.09 | KIEDVEITLV [FCHSD2, O94868] |
| below the threshold | MQILSKPEFI [NPSR1, Q6W5P4] |

target: Inadl_5, Q8NI35; assay: holdup assay; parameters: key: below the threshold = too weak to quantify, mostly under pKd 3.1 to 4; details: plain residues with an end cap or a label only (N-terminal biotin on a linker: ado-ado)
Sequence (Q8NI35 673-780): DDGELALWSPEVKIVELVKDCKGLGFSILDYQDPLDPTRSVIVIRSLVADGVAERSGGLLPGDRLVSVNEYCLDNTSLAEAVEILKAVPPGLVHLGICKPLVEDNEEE

| pKd | Binder |
| --- | --- |
| below the threshold | KIEDVEITLV [FCHSD2, O94868] |
| 3.53 | MQILSKPEFI [NPSR1, Q6W5P4] |

target: T6, FRMPD1, Q5SYB0; assay: holdup assay; parameters: key: below the threshold = too weak to quantify, mostly under pKd 3.1 to 4; details: plain residues with an end cap or a label only (N-terminal biotin on a linker: ado-ado)

| pKd | Binder |
| --- | --- |
| below the threshold | KIEDVEITLV [FCHSD2, O94868] |
| below the threshold | MQILSKPEFI [NPSR1, Q6W5P4] |

target: T7, TJP3_3, O95049; assay: holdup assay; parameters: key: below the threshold = too weak to quantify, mostly under pKd 3.1 to 4; details: plain residues with an end cap or a label only (N-terminal biotin on a linker: ado-ado)

| pKd | Binder |
| --- | --- |
| below the threshold | KIEDVEITLV [FCHSD2, O94868] |
| below the threshold | MQILSKPEFI [NPSR1, Q6W5P4] |

target: T8, PDZD7_3, Q9H5P4; assay: holdup assay; parameters: key: below the threshold = too weak to quantify, mostly under pKd 3.1 to 4; details: plain residues with an end cap or a label only (N-terminal biotin on a linker: ado-ado)

| pKd | Binder |
| --- | --- |
| 5.46 | KIEDVEITLV [FCHSD2, O94868] |
| below the threshold | MQILSKPEFI [NPSR1, Q6W5P4] |

target: LNX1_1, Q8TBB1; assay: holdup assay; parameters: key: below the threshold = too weak to quantify, mostly under pKd 3.1 to 4; details: plain residues with an end cap or a label only (N-terminal biotin on a linker: ado-ado)
Sequence (Q8TBB1 261-371): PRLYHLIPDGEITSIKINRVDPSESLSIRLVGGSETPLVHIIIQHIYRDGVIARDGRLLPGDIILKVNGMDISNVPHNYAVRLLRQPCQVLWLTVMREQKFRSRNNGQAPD

| pKd | Binder |
| --- | --- |
| below the threshold | KIEDVEITLV [FCHSD2, O94868] |
| below the threshold | MQILSKPEFI [NPSR1, Q6W5P4] |

target: FRMPD3, Q5JV73; assay: holdup assay; parameters: key: below the threshold = too weak to quantify, mostly under pKd 3.1 to 4; details: plain residues with an end cap or a label only (N-terminal biotin on a linker: ado-ado)
Sequence (Q5JV73 12-100): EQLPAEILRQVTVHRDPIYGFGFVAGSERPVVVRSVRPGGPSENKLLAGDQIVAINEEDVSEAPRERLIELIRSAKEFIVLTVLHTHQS

| pKd | Binder |
| --- | --- |
| below the threshold | KIEDVEITLV [FCHSD2, O94868] |
| below the threshold | MQILSKPEFI [NPSR1, Q6W5P4] |

target: T9, LRRC7, Q96NW7; assay: holdup assay; parameters: key: below the threshold = too weak to quantify, mostly under pKd 3.1 to 4; details: plain residues with an end cap or a label only (N-terminal biotin on a linker: ado-ado)

| pKd | Binder |
| --- | --- |
| below the threshold | KIEDVEITLV [FCHSD2, O94868] |
| below the threshold | MQILSKPEFI [NPSR1, Q6W5P4] |

target: T10, APBA2_1, Q99767; assay: holdup assay; parameters: key: below the threshold = too weak to quantify, mostly under pKd 3.1 to 4; details: plain residues with an end cap or a label only (N-terminal biotin on a linker: ado-ado)

| pKd | Binder |
| --- | --- |
| below the threshold | KIEDVEITLV [FCHSD2, O94868] |
| 3.74 | MQILSKPEFI [NPSR1, Q6W5P4] |

target: T11, PDZD2_2, O15018; assay: holdup assay; parameters: key: below the threshold = too weak to quantify, mostly under pKd 3.1 to 4; details: plain residues with an end cap or a label only (N-terminal biotin on a linker: ado-ado)

| pKd | Binder |
| --- | --- |
| 4.64 | KIEDVEITLV [FCHSD2, O94868] |
| 3.62 | MQILSKPEFI [NPSR1, Q6W5P4] |

target: Inadl_9, Q8NI35; assay: holdup assay; parameters: key: below the threshold = too weak to quantify, mostly under pKd 3.1 to 4; details: plain residues with an end cap or a label only (N-terminal biotin on a linker: ado-ado)
Sequence (Q8NI35 1530-1615): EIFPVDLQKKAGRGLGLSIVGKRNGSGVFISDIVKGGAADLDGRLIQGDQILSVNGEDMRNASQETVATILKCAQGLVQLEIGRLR

| pKd | Binder |
| --- | --- |
| 3.68 | KIEDVEITLV [FCHSD2, O94868] |
| 3.64 | MQILSKPEFI [NPSR1, Q6W5P4] |

target: T12, LNX2_3, Q8N448; assay: holdup assay; parameters: key: below the threshold = too weak to quantify, mostly under pKd 3.1 to 4; details: plain residues with an end cap or a label only (N-terminal biotin on a linker: ado-ado)

| pKd | Binder |
| --- | --- |
| below the threshold | KIEDVEITLV [FCHSD2, O94868] |
| below the threshold | MQILSKPEFI [NPSR1, Q6W5P4] |

target: T13, NHERF3_4, Q5T2W1; assay: holdup assay; parameters: key: below the threshold = too weak to quantify, mostly under pKd 3.1 to 4; details: plain residues with an end cap or a label only (N-terminal biotin on a linker: ado-ado)

| pKd | Binder |
| --- | --- |
| below the threshold | KIEDVEITLV [FCHSD2, O94868] |
| 3.51 | MQILSKPEFI [NPSR1, Q6W5P4] |

target: DLG2_3, Q15700; assay: holdup assay; parameters: key: below the threshold = too weak to quantify, mostly under pKd 3.1 to 4; details: plain residues with an end cap or a label only (N-terminal biotin on a linker: ado-ado)

| pKd | Binder |
| --- | --- |
| below the threshold | KIEDVEITLV [FCHSD2, O94868] |
| 3.53 | MQILSKPEFI [NPSR1, Q6W5P4] |
